The results in this text go back to paper PMC10160951 (Proceedings of the National Academy of Sciences of the …, 2023).

Broadly, the Kd is a measure of binding affinity in units of concentration. A higher Kd goes with a looser complex.

Assay [1] has as its target full-length SNAP-tagged NKG2D on HEK293 TRex cells (co-expressed with DAP10) (human) (UniProt P26718). The assay is described as follows: FRET or BRET.
Assay [2] deals with T1, MICA ECD (24 to 297), not dye-labeled (human, UniProt Q29983 24-297).
T1 sequence: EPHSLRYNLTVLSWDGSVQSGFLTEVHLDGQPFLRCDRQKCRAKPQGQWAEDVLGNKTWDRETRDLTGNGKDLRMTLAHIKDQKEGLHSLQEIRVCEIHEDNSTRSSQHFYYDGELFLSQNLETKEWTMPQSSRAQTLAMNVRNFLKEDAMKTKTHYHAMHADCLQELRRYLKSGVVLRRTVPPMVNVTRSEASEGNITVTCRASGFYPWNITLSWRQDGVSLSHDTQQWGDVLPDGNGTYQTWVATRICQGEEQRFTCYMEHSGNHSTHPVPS
Nature of the assay: SEC-MALS. For orientation: Size exclusion chromatography separates by hydrodynamic size, large species first.

For assay [3], the target named is T2, Alexa Fluor 647-labeled MICB ECD (24 to 297) (human, UniProt Q29980 24-297, AF647 label on Cys213).
T2 sequence: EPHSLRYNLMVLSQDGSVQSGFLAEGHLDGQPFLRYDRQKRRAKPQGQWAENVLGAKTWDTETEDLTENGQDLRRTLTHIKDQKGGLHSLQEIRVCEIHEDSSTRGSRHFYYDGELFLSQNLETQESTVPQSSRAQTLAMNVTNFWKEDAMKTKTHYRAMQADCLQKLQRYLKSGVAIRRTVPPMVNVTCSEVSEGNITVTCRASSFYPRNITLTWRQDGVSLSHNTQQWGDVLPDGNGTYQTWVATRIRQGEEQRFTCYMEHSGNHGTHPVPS
Nature of the assay: FRET or BRET. (In general: BRET reads energy transfer from a luciferase to a nearby fluorophore.)

Assay [4] concerns the target T1, MICA ECD (24 to 297), not dye-labeled. Nature of the assay: SPR. (Surface plasmon resonance follows binding to a sensor surface in real time, without labels.)

The molecule “Alexa Fluor 647-labeled ULBP6 ECD (29 to 207) (from UniProt Q5VY80 29-207) (ligand)” yielded a Kd in assay [1] of 2.5 nM.

B1: hNKG2D 90-216, S117E, I173S mutant (domain or fragment)
chain: MGPLTESYCGPCPKNWICYKNNCYQFFDEEKNWYESQASCMSQNASLLKVYSKEDQDLLKLVKSYHWMGLVHIPTNGSWQWEDGSSLSPNLLTIIEMQKGDCALYASSFKGYIENCSTPNTYICMQRTV
Turning to B1, in assay [2], the binding result is reported as “binds”.

B2: full-length SNAP-tagged NKG2D on HEK293 TRex cells (co-expressed with DAP10) (receptor)
chain: MGWIRGRRSRHSWEMSEFHNYNLDLKKSDFSTRWQKQRCPVVKSKCRENASPFFFCCFIAVAMGIRFIIMVTIWSAVFLNSLFNQEVQIPLTESYCGPCPKNWICYKNNCYQFFDESKNWYESQASCMSQNASLLKVYSKEDQDLLKLVKSYHWMGLVHIPTNGSWQWEDGSILSPNLLTIIEMQKGDCALYASSFKGYIENCSTPNTYICMQRTV
modifications: terbium label on the SNAP-tag
With B2, in assay [3], the Kd was 700 nM.

B3: biotinylated and detagged NKG2D ECD (90 to 216) (domain or fragment)
chain: PLTESYCGPCPKNWICYKNNCYQFFDESKNWYESQASCMSQNASLLKVYSKEDQDLLKLVKSYHWMGLVHIPTNGSWQWEDGSILSPNLLTIIEMQKGDCALYASSFKGYIENCSTPNTYICMQRTV
modifications: biotin on the Avi tag
B3 registered a Kd in assay [4] of 48 nM.
